experiment: yeast display, Sf9 membrane polyspecificity reagent, FACS + sequencing; frameworks hold sequencing errors
Outline: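 Polyreactivity labels are assigned by the sorting gate from which each nanobody was recovered. The gates were low and high (top ~1%), set on anti-HA fluorescence for expression and streptavidin fluorescence for reagent binding. Before sorting, galactose-induced (36–48 hours) yeast display cells were stained for 1 hour at 4 °C with 10% biotinylated, detergent-solubilized Sf9 membrane reagent.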

| Sequence | polyreactivity (PSR sort gate) |
| --- | --- |
| QVQLVESGGGLVQAGGSLRLSCAASGSIFARYAMGWYRQAPGKERELVATISYRGSSTYYADSVKGRFTISRDNAKNTVYLQMNSLKPEDTAVYYCAARTYRRIYAYYRFDYWGQGTQVTVSS | low polyreactivity |
| QVQLVESGGGLVQAGGSLRLSCAASGSIFARYAMGWYRQAPGTERELVAAISRNGGSTYYADSVKGRFTISRDNAKNTVYLQMNSLKPEDTAVYYCAASYYVLYTREYDYWGQGTQVTVSS | low polyreactivity |
| QVQLVESGGGLVQAGGSLRLSCAASGSIFASYAMGWYRQAPGKERELVAAIRSSGGRTYYADSVKGRFTISRDNAKNTVYLQMNSLKPEDTAVYYCNARRPGYRPYGYDYWGQGTQVTVSS | high polyreactivity |
| QVQLVESGGGLVQAGGSLRLSCAASGSIFASYAMGWYRQAPGKERELVAAISARGGSTYYADSVKGRFTISRDNAKNTVYLQMNSLKPEDTAVYYCAARHQQGRRISDYGYWGQGTQVTVSS | high polyreactivity |
| QVQLVESGGGLVQAGGSLRLSCAASGSIFASYVMGWYRQAPGKERELVASITLSGGSTYYADSVKGRFTISRDNAKNTVYLQMNSLKPEDTAVYYCAKRGTLWLQEDYYWGQGTQVTVSS | low polyreactivity |
| QVQLVESGGGLVQAGGSLRLSCAASGSIFATHAMGWYRQAPGQDRELVAAISWRTGSTVYADSVKGRFTISRDNAKNTDYLQMNSLKPEDTAVYYCAATRRGDNYRYDYWGQGTQVTVSS | high polyreactivity |
| QVQLVESGGGLVQAGGSLRLSCAASGSIFAVNTMGWYRQAPGKERELVAAISQRGSSTYYADSVKGRFTISRDNAKNTVYLQMNSLKPEDTAVYYCAKRFIYGRYNYWGQGTQVTVSS | high polyreactivity |
| QVQLVESGGGLVQAGGSLRLSCAASGSIFAVYAMGWYRQAPGKERELVASISRRGGSTYYADSVKGRFTISRDNAKNTVYLQMNSLKPEDTAVYYCAATGRRGYGYGYWGQGTQVTVSS | high polyreactivity |
| QVQLVESGGGLVQAGGSLRLSCAASGSIFAVYAMVWYRQAPGKERELVAAISWSVGSTYYADSVKGRFTISRDNAKNTVYLQMNRLKPEDTAVYYCAADLAYYLDYVEYFTEIELEGYWGQGTQVTVSS | low polyreactivity |
| QVQLVESGGGLVQAGGSLRLSCAASGSIFAWYAMGWYRQAPGKERELVATITWSGGSTYYADSVKGRFTISRDNAKNTVYLQMNSLKPEDTAVYYCAAEVVGICYDLWYQGDYWGQGTQVTVSS | low polyreactivity |
| QVQLVESGGGLVQAGGSLRLSCAASGSIFAWYAMGWYRQAPGKERELVAVITRGGSTNYADSVKGRFTISRDNAKNTVYLQMNSLKPEDTAVYYCAAGSYYSWYPFDYWGQGTQVTVSS | low polyreactivity |
| QVQLVESGGGLVQAGGSLRLSCAASGSIFAWYGMGRYRQAPGIERELVAAITTAGSTNYADSVKGRFTISRDNAKNTVYLHMNSLKPEDTAVYYCATATPYVSLKDAHDYGGQGTQVTVSS | low polyreactivity |
| QVQLVESGGGLVQAGGSLRLSCAASGSIFAWYGMGWYRPAPGKERELVAAISTAGSTNYADSVKGRFTISRDNAKNTVYLQMNSLKPEDTAVYYCAKKSSWYYPERFDYWGQGTQVTVSS | low polyreactivity |
| QVQLVESGGGLVQAGGSLRLSCAASGSIFAWYGMGWYRQAPGKERELVAAITSTGSTYYADSVKGRFTISRDNAKNTVYLQMNSLKPEDTAVYDCNAYSVYLWRPGDYWGLGTQVTVSS | low polyreactivity |
| QVQLVESGGGLVQAGGSLRLSCAASGSIFAWYGMGWYRQAPGKERELVAAITSTGSTYYADSVKGRFTISRDNAKNTVYLQMNSLKPEDTAVYYCNDYSVYLWRPGDYWGQGTQVTVSS | low polyreactivity |
| QVQLVESGGGLVQAGGSLRLSCAASGSIFAYAMGWYRQAPGKERELVAGISSSGGRTYYADSVKGRFTISRDNAKNTVYLQMNRLKPEDTAVYYCAAKRWGLYKGYNCGQGTQVTVSS | high polyreactivity |
| QVQLVESGGGLVQAGGSLRLSCAASGSIFAYNAMGWYIQAPGKERELVATITVRGGSTYYADSVKGRFTISRDNAKNTFYLQMNSLKPEDTAVYFCAVRTYRYYRYNYWGQGTQVTVSS | high polyreactivity |
| QVQLVESGGGLVQAGGSLRLSCAASGSIFAYNAMGWYRQAPGKERELVAAISVSDGITYYADSVKGRFTISRDNAKNTVYLQMNSLKPEDTAVYYCAARTRGPYRAYDYWGQGTQVTVSS | low polyreactivity |
| QVQLVESGGGLVQAGGSLRLSCAASGSIFAYYAMGGYRQAPGKEREFVAAISKRGGRTYYADSVKGRFTISRDNAKNTVYLQMNSLKPEDTAVYYCAAPWAYPRSGGDYWGQGTQVTVSS | high polyreactivity |
| QVQLVESGGGLVQAGGSLRLSCAASGSIFAYYAMGWYRQAPGKERELVAAISGTGGSTNYADSVKGRFTISRDNAKNTVYLQMNSLKPEDTAVYYCAKDYSFQWRNEFNLAGEYDYWGQGTQVTVSS | low polyreactivity |
| QVQLVESGGGLVQAGGSLRLSCAASGSIFAYYAMGWYRQAPGKERELVAAISYSGDGTYYADSVKGRFTISRDNAKNTVYFQMNSLKPEDTAVYYCAADWDGYFYKSNWDYNYWGQGTQVTVSS | low polyreactivity |

| Sequence | polyreactivity (PSR sort gate) |
| --- | --- |
| QVQLVESGGGLVQAGGSLRLSCAASGSIFAYYAMGWYRQAPGKERELVAGIRISGGRTYYADSVKGRFTISRDNAKNTVYLQMNSLKPEDTAVYYCNARWRGFRTGAGDYWGQGTQVTVSS | high polyreactivity |
| QVQLVESGGGLVQAGGSLRLSCAASGSIFAYYAMGWYRQAPGKERELVAVIRSGGSTYYADSVKGRFTISRDNEKNTVYLQMNSLNPEDTAVYYCAAPSYRPSRGDYWGQGTQVTVSS | high polyreactivity |
| QVQLVESGGGLVQAGGSLRLSCAASGSIFAYYAMGWYRQAPGKERELVAVISRGGSTYYADSVKGRFTISRDNATNTVYLQMNSLKPEDTAVYYCAADDTRGREEYDYWGQGTQVTVSS | high polyreactivity |
| QVQLVESGGGLVQAGGSLRLSCAASGSIFCDNAMGWYRQEPGKERELVAAISIVGSTSYADSVKGRFTISRDNANNTVYLQMNSLKPEDTAVYYCAAENVRSDTGFDYWGQGTQVTVSS | low polyreactivity |
| QVQLVESGGGLVQAGGSLRLSCAASGSIFCSYAMGWYRPAPGKERELVAAITQRGGRTYYADSVKGRFTISRENAKNTVYLQMNSLKPEDTAVYYCAAKNRISRPSPYDYWGQGTQVTVSS | high polyreactivity |
| QVQLVESGGGLVQAGGSLRLSCAASGSIFDAYAMGWYRQAPGKERELVAAITTGGGSTYYADSVKGRFTISRDTAKNTVYLQMNSLKPEDTAVYYCARDYGKYKGYYWGQGTQVTVSS | low polyreactivity |
| QVQLVESGGGLVQAGGSLRLSCAASGSIFDAYVMGWYRQAPGKERELVAAISRSGGSTYYADSVKGRFTISRDNAKNTVYLQMNSLKPEDTAVYYCAAEKIRSSPYRYDYWGQGTQVTVSS | low polyreactivity |
| QVQLVESGGGLVQAGGSLRLSCAASGSIFDFYAMGWYRQAPGKERELVAAINRGGSTYYADSVKGRFTISRDNAKNTVYLQMNSLKPEDTAVYYCAASYFYWRANRGPRYYWGQGTQVTVSS | high polyreactivity |
| QVQLVESGGGLVQAGGSLRLSCAASGSIFDGNAMGWYRQAPGKERELVAAISGGGRTYYADSVKGRFTISRDNAKNTVYLQMNSLKPEDTAVYYCAAAYTFYVYGSYKVTLDYWGQGTQVTVSS | low polyreactivity |
| QVQLVESGGGLVQAGGSLRLSCAASGSIFDHTNAMGSYRQAPGKERELVAAITSGSSTNYADSVKGRFTISRDNAKKTVDLQMNSLKPEDTAVYYCNADRFHSGIFDYWGQGTQVTVSS | low polyreactivity |
| QVQLVESGGGLVQAGGSLRLSCAASGSIFDINAMGWYRQAPGKERELVAAISTTSGRTYYADSVKGRFTISRDNAKNTVFLQMNSLKPEDTAVYYCNVSKYVSSYRRGLFNYWGQGTQVTVSS | low polyreactivity |
| QVQLVESGGGLVQAGGSLRLSCAASGSIFDINAMGWYRQAPGKERELVAVITDSGSTYYADSVKGRFTISRDNAKNTVYLQMNSLKPEDTAVYYCAAESSLLFFLMDYWGQATQVTVSS | low polyreactivity |
| QVQLVESGGGLVQAGGSLRLSCAASGSIFDINAMGWYRQAPGKERELVAVITDSGSTYYADSVKGRFTISRDNAKNTVYLQMNSLKPEDTAVYYCAAESSLLFFLMDYWGQGTQVTVSS | low polyreactivity |
| QVQLVESGGGLVQAGGSLRLSCAASGSIFDIYAMGWYRQAPGKERELVAAISWNGGDTTYADSVKGRFTISRDNAKNTVYLQMNSLKPEDTAVYYCAADLGYWVADYYWGQGTQVTVSS | high polyreactivity |
| QVQLVESGGGLVQAGGSLRLSCAASGSIFDIYAMGWYRQAPGKETELVAAISWNGGDTTYADSVKGRFTISRDNAKNTVYLQMNSLKPEDTAVYYCAADLGYWVADYYWGQGTQVTVSS | high polyreactivity |
| QVQLVESGGGLVQAGGSLRLSCAASGSIFDLNAMGWYRQAPGKERELVAAISKSGGSTYYADSVKGRFTISRDNAKNTVYLQMNSLKPEDTAVYYCATSGDRLVWGQGTQVTVSW | low polyreactivity |
| QVQLVESGGGLVQAGGSLRLSCAASGSIFDLNAMGWYRQAPGKERELVAAISSGGGTYYADSVKGRFTISRDNAKNTVYLQMNSLKPEDTAVYYCNRVTRWTYNYWGQGTQVTVSS | high polyreactivity |
| QVQLVESGGGLVQAGGSLRLSCAASGSIFDLYAMGWYRQAPGKERELVAGISYSGGSTYYADSVKGRFTISRDNAKNTVYLQMNSLKPEDTAVYYCAVDLGYRLGRFDYWGQGTQVTVSS | low polyreactivity |
| QVQLVESGGGLVQAGGSLRLSCAASGSIFDNYAMGWYRPAPGKERELVAVISSGGVSTSYADSVKGRFTISRDNAKNTVYLQMNSLKTEDTAVYYCAADGYYIGPYDYWGQGTQVNVSS | low polyreactivity |
| QVQLVESGGGLVQAGGSLRLSCAASGSIFDPYAMGWYRQAPGKEREFVAALSWSGGSTYYADSVKGRFTISRDNAKNTVYLQMNSLKPEDTAVYYCATDWGDPYGYDYWGQGTQVTVSS | low polyreactivity |

From the nanobody polyreactivity screen of Harvey et al. (2022)
